Reference: the supplement of paper PMC10567573

B1: CLCN6 (parent)
chain: MAGCRGSLCCCCRWCCCCGERETR
B2: ETS1 (parent)
chain: YVRDRADLNKDKPVIPAAALAGYT

Variants of: B1
Experiment: protein stability index of a GFP-peptide fusion (GPS, HEK-293T) (PSI 1-6); higher = more stable
Conditions: c terminus: a fixed tail appended
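Note: lentivirally expressed fusions sorted by FACS into six bins by GFP to DsRed ratio, PSI derived from sequencing read proportions per bin multiplied by bin number.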

Protein stability index: each site, then its substitutions
C4: R 2.33; F 2.4; Y 2.12; H 2.07; E 2.58; D 2.24; G 1.45; S 1.69; W 1.79; I 1.61; A 1.84; K 2.35; L 2.74
W14: Q 2.47; A 1.89; H 2.06; E 2.08; K 2.32; M 1.14; T 3.2; F 1.95; R 2.22; L 3.15; Y 1.55; G 2.23; P 2.33; N 2.06; C 1.53
C12: H 1.52; M 2.19; R 1.95; I 2.88; G 3.2; S 1.96; V 1.94; N 2.9; K 1.89; D 2.35; L 2.86; F 3.72; Y 2.23; T 2.59; P 1.66
C15: F 2.99; H 2.6; G 2.04; D 1.71; A 1.97
S7: P 2.19; Q 1.49; C 2.52; A 1.5; H 1.89; F 1.91; L 1.9; W 2.47; I 2.55; N 1.09; T 1.77; K 1.5; Y 1.43; R 1.37
C10: F 1.36; M 1.28; D 1.24; T 3.66; H 1.69; P 1.45; A 1.42; Q 1.54; W 1.69; N 1.7; K 2.07; Y 1.88; I 1.79
R13: K 1.1; E 2.4; V 1.78; L 2.4; H 2.06; C 2.02; S 1.94; N 2.4; Y 2.57; Q 1.79; P 1.76; W 3.64; F 2.78; T 1.95; A 2.01; G 2.27; M 2.13; I 1.3
A2: F 2.2; L 1.33; Q 1.74; G 2.1; K 2.68; M 1.73; I 2.07; E 2.77; D 2; V 1.46; H 2.81; P 1.37; Y 1.98
L8: T 1.42; R 2.16; F 1.1; S 1.22; K 1.53; D 1.17; Q 1.29; G 2.1; V 2.21; N 1.42; I 1.32; E 1.83; C 1.54
R5: D 1.38; E 1.34; P 1.29; Y 3.45; Q 2.33; I 1.92; K 3.21; T 1.44; W 1.98; C 2.33; F 2.41; A 1.98; G 1.49; M 1.38
M1: K 2.14; A 1.91; C 1.98; N 1.56; H 2.14; E 1.22; L 1.39; G 1.86; D 1.78; S 1.56; Q 1.65; P 2.12
G3: F 2.11; K 1.52; P 1.27; N 1.5; I 1.44; E 2.09; R 2.1; Q 1.31; W 1.9; V 1.15; Y 2.37; D 1.8; M 1.99
G6: I 2.06; E 2.38; W 2.54; S 1.82; P 1.58; D 2.36; L 1.32; N 1.72; H 1.86; Q 2.28; R 2.52; T 1.59; Y 1.89; F 1.92; A 1.83; V 1.37; M 1.41
C9: D 1.18; F 1.77; W 2.65; Q 2.64; L 1.64; E 1.45; I 1.76; A 3.15; T 2.16; H 3.07; R 1.28; M 2.65; Y 1.69; G 2.23; N 1.67; P 1.69; K 1.77
C11: L 3.23; E 2.27; S 1.77; N 2.15; W 2.26; G 3.4; F 2.72; Q 1.9; Y 2; K 1.17; R 1.97; D 2.23; M 1.84; T 2.24; H 1.3; A 2.42; V 1.41; I 1.68

Variants of: B2
Experiment: as above
Conditions: c terminus: a fixed tail appended

Protein stability index, by site and new letter:
L20: V 2.02; F 2.8; S 1.82; G 2.02; T 2.12; M 2.45; H 1.89; D 1.55; C 2.48; R 2.35; N 1.94; E 1.81; Y 3.18; P 2.41; I 2.04; Q 2.79; W 3.22; A 2.06; K 1.48
A18: I 3.08; R 1.93; P 3.01; S 2.73; V 1.09; K 2.63; Q 2.84; T 1.93; N 2.22; L 2.88; Y 2.19; W 2.53
T24: S 1.98; F 1.84; P 2.77; M 2.67; W 4.5; V 1.74; R 2.1; Q 2.69; H 3.26; D 1.45; G 1.69; K 2.81; C 2.47; I 2.37; E 2.08; A 2.37; Y 2.11; L 2.7
Y23: N 2.34; T 2.26; P 1.47; W 2.5; R 1.89; I 2.53; M 1.89; L 2.58; H 2.18; A 2.15; S 1.52; V 2.13; K 1.46; E 2.3; D 1.91; Q 1.86; F 2.21; G 1.73; C 2.51
A21: V 2.38; W 2.75; Q 1.95; Y 2.74; G 1.63; K 2.08; P 1.65; R 2.07; L 3.03; E 2.1; I 2.42; D 2.4; M 1.45; F 3.51; S 2.53; N 2.14; T 2.52; H 2.06
A19: W 2.98; L 1.55; Q 2.84; C 1.86; E 1.91; V 3.93; D 2.07; T 2.17; M 1.63; P 2.04; S 1.86; Y 2.13; N 2.17; I 2.14; K 2.9; R 2.53; H 1.75; F 3.59; G 2.62
G22: W 2.55; T 2.05; S 1.66; D 2.53; R 1.69; L 1.85; C 2.39; Q 2.12; F 2.21; E 1.77; N 2.15; P 2.01; M 1.63; K 2.18; Y 1.69; I 2.29; V 2.74; H 1.63; A 2.8
